Measured values as given in patent US20170168078A1.

Assays:
[1] = biological target: human folate receptor delta (FRΔ) expressed on CHO cells (human) (UniProt A6ND01); assay: flow cytometry on cells expressing FRΔ, antibody 1 µg/mL (parental CHOK1: 5.9)
[2] = biological target: human folate receptor delta (FRΔ) expressed on CHO cells (human) (UniProt A6ND01); assay: flow cytometry on cells expressing FRΔ, antibody 1 µg/mL (parental CHOK1: 5.7)

Sequence of human folate receptor delta (FRΔ) expressed on CHO cells (human) (A6ND01 20-228, stated change not applied): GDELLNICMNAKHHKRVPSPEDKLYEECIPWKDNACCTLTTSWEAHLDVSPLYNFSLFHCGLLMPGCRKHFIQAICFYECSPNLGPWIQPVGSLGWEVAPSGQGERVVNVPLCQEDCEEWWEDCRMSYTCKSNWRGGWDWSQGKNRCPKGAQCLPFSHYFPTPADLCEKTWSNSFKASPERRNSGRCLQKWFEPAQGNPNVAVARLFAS

Geometric Mean [1] | Geometric Mean [2] | Binder
5.9 |  | Monoclonal antibody 24F12.B1 (antibody, mouse IgG1, V domains shown) VH: SGGGLVRPGGSLKLSCAASGFTFSSYAMSWVRQSPEKRLEWVAEIGSGGSYTYYPDTVTGRFTISRDNAKSTLYLEMSSLRSEDTAIYYCARETTAGYFDYWGQGTTLTVSS VL: TSSLSASLGDRVTISCSASQGINNFLNWYQQKPDGTVKLLIYYTSSLHSGVPSRFSGSGSGTDYSLTISNLEPEDIAIYYCQHFSKLPWTFGGGTKLEIKR
5.6 |  | Monoclonal antibody 9F3.H9.H3.H3.B5.G2 (antibody, mouse IgG2a, V domains shown) VH: ESGPGLVRPSQSLSLTCSVTGYSITSGYYWNWIRQFPGSRLEWMGYIKSDGSNNYNPSLKNRISITRDTSKNQFFLKLNSVTTEDTATYFCTREWKAMDYWGQGTSVTVSS VL: PAIMSASPGEKVTMTCRASSTVSYSYLHWYQQKSGASPQLWIYGTSNLASGVPARFSGSGSGTSYSLTISSVEAEDAATYYCQQYSGYPLTFGAGTKLELKR
 | 5.4 | Monoclonal antibody 26B3.F2 (antibody, mouse IgG1, V domains shown) VH: GPELVKPGASVKISCKASDYSFTGYFMNWVMQSHGKSLEWIGRIFPYNGDTFYNQKFKGRATLTVDKSSSTAHMELRSLASEDSAVYFCARGTHYFDYWGQGTTLTVSS VL: PASLSASVGETVTITCRTSENIFSYLAWYQQKQGISPQLLVYNAKTLAEGVPSRFSGSGSGTQFSLKINSLQPEDFGSYYCQHHYAFPWTFGGGSKLEIKR
